The record followed here is CN107540747A.

The assay addresses 人DLL4分子 (full-length human DLL4 on the cell surface) (human) (UniProt Q9NR61). As to the kind of experiment: indirect immunofluorescence, flow cytometry on CHO/DLL4 cells. A general note: Flow cytometry measures light scatter and fluorescence of single cells or particles in a stream.

Some results are limits rather than exact numbers.

UniProt Q9NR61, sequence (Q9NR61 27-685): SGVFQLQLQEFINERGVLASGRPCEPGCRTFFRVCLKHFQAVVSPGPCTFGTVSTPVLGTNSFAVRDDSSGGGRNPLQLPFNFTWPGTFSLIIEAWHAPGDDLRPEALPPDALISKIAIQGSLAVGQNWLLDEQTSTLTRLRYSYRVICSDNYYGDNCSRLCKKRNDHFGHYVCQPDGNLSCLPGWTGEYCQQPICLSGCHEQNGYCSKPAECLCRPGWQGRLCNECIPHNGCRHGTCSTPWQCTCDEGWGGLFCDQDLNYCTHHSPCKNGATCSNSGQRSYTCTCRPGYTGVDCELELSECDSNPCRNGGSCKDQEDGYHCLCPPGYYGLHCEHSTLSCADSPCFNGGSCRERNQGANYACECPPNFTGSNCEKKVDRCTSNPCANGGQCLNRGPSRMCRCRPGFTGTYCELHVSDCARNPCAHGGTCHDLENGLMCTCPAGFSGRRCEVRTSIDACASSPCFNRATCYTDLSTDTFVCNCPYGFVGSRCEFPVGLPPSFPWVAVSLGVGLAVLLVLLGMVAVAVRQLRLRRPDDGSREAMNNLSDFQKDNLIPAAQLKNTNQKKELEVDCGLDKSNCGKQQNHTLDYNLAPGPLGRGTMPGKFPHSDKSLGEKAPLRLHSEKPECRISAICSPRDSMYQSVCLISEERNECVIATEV

B1: 抗人DLL4单克隆抗体6F12 (antibody, mouse IgG2b, V domains shown)
VH: EVHVKQSGPELVKPGASVKMSCKASGYTFTSYLLHWVKQKPGQGLEWIGYIIPYNDGTRYNEKFKGKATLTSDKSSNTAYMELSSLTSEDSAVYYCAREGTGTGAFDYWGQGTSLTVSS
VL: DIVLTQSPAIMSASPGEKVTMTCRASSSVNYMYWYQQKPGSSPRLLIYDTSNLASGVPVRFSGSGSGTSYSLTISRMEAEDAATYYCQQWSSYPYTFGGGTKLEIK
B1 came in with a 效价 (titer (1:x dilution)) greater than 10000.
